Data from the supplement of paper PMC10567573.

B1: NEK8 (parent)
chain: YTFGSNQHGQLGTNTRRGSRAPCK
B2: ZNF207 (parent)
chain: CHICHKKLYTGPGLAIHCMQVHKE

Variants of: B1
Experiment: protein stability index of a GFP-peptide fusion (GPS, HEK-293T) (PSI 1-6); higher = more stable
Conditions: c terminus: a fixed tail appended
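Further: lentivirally expressed fusions sorted by FACS into six bins by GFP to DsRed ratio, PSI derived from sequencing read proportions per bin multiplied by bin number.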

Protein stability index, by site and new letter:
Q10: W 1.52; H 3.89; N 3.83; I 3.47; F 3.33; C 3.36; G 4.08; R 3.82; T 4.32; D 4.45; P 4; M 3.58; A 4.21; S 3.58; K 3.41; V 3.31; Y 3.52; E 4.33; L 3.36
G9: Q 3.94; S 4.15; H 4.16; R 3.94; L 3.19; N 3.98; M 3.19; T 3.82; F 2.1; C 3.48; E 3.98; W 2.16; Y 2.23; I 3.05; V 2.78; D 4.11; K 4.12; A 3.39; P 3.38
Q7: K 3.8; H 3.84; V 3.84; T 4.28; C 3.59; G 4.07; S 3.58; A 3.55; N 4.06; R 3.81; D 3.98; L 2.28; M 3.66; Y 3.09; I 3.45; F 1.54; E 4.2; W 2.73; P 3.81
G4: C 2.91; I 3.72; D 4.39; H 3.91; N 3.82; S 3.66; V 4.2; W 2.91; Q 4.04; T 3.54; A 3.44; L 3.99; K 3.6; Y 3.42; E 4.33; R 4.36; P 4.19; M 3.44; F 3.64
N6: I 3.6; Y 3.48; F 2.61; P 4.07; D 4.24; M 3.44; S 3.86; W 3.06; C 3.78; H 3.75; R 4.18; K 3.44; E 4.44; V 3.75; G 3.52; T 3.54; A 3.94; Q 4.21; L 3.29
S5: G 3.86; W 2.67; H 3.66; M 4.11; Q 4.01; I 3.44; D 4.53; F 2.23; R 3.96; K 3.5; Y 2.49; V 4.09; N 4.14; A 3.63; E 4.61; T 4.36; P 3.84; C 3.72; L 3.62
Y1: I 4.34; Q 4.99; K 4.79; N 5.24; E 4.47; S 4.89; P 4.52; F 3.66; H 4.54; C 4.11; A 4.81; W 4.28; D 4.96; M 4.31; T 4.49; R 4.64; V 4.6; G 5.09; L 4.13
F3: C 3.58; W 2.06; L 3.99; I 3.89; H 3.94; D 4.11; R 3.92; E 4.32; K 4.32; P 2.02; G 2.29; N 3.95; A 3.31; S 3.2; V 3.98; T 3.77; M 4.13; Y 3.54; Q 3.69
H8: C 3.94; Y 3.36; K 4; A 3.98; M 3.75; F 3.23; N 3.99; D 4.15; E 4.47; R 3.92; P 3.97; Q 3.92; G 3.61; S 3.77; V 4.01; W 2.36; L 3.37; T 3.87; I 3.48
T2: Y 4.24; D 4.43; E 4.78; P 4.18; N 4.61; M 4.5; G 4.33; I 2.44; Q 3.5; F 3.25; A 2.77; V 2.36; H 1.95; K 3.83; R 4.75; C 2.88; L 3.61; S 4.31; W 3.32
L11: H 4.23; C 4.02; N 4.3; Q 4.49; R 4.65; T 4.43; K 3.56; F 3.76; A 4.38; S 4.94; E 4.53; G 4.53; I 3.93; M 4.01; D 4.49; P 4.22

Variants of: B2
Experiment: as above
Conditions: c terminus: a fixed tail appended

Protein stability index of substitutions, site by site:
H22: S 1.85; W 1.68; M 2.78; D 3.04; R 2.11; P 3.15; T 2.48; V 2.03; G 1.88; Y 1.45; Q 1.8; A 2.65; L 2.11; E 2.67; K 2.41; C 2.64; F 1.92; I 2.41; N 2.35
K23: V 3.19; T 2.61; P 3.04; Y 2.19; M 3.49; F 2.04; N 4.12; R 3.13; H 3.48; E 3.95; I 2.21; C 3.06; W 2.25; G 3.68; L 2.38; A 3.14; D 3.87; S 3.35; Q 3.52
M19: R 3.41; E 4.47; T 3.73; D 3.36; N 3.9; P 3.3; H 4.12; K 3.93; C 4.56; Q 3.81; A 3.57; F 3.75; I 3.47; S 4.03; Y 2.94; V 2.94; W 2.48; L 2.52; G 3.41
V21: N 3.48; H 3.44; C 4.09; W 2.89; Q 2.89; Y 3.93; E 3.6; P 3.21; K 3.27; I 2.49; R 2.84; A 3.84; D 3.5; G 3.96; T 3.7; F 3.35; M 3.72; L 3; S 3.71
Q20: V 3.88; H 4.04; P 2.86; N 3.85; I 3.61; L 4; S 1.93; G 3.13; R 2.62; A 3.4; T 3.56; W 2.92; C 4.79; M 3.65; K 2.75; F 3.4; E 3.95; Y 3.36; D 3.28
C18: K 3.09; Y 2.02; N 2.59; V 2.8; L 3.69; P 2.47; W 1.93; R 2.4; I 2.06; M 2.47; H 2.56; S 3.01; T 3.02; Q 2.99
E24: G 2.55; P 2.63; F 2.53; C 3.29; A 2.66; L 2.6; I 3.47; M 2.11; D 2.84; S 3.17; K 2.65; H 2.18; W 2.49; Y 2.74; N 2.44; R 2.34; Q 2.85; T 2.96; V 3.65
